# In the RNAGym collection of RNA variant scans (doi:10.7554/elife.80360):
# B1: Hairpin Ribozyme (parent)
# chain: GUCCUCUUUCACGUGCGCGUGAAAGAGAGAAGUGAACCAGAGAAACACACGUUGUGGUAUAUUACCUGGUA
# Variants of: B1
# Test: self-cleavage, relative activity (ratio to wild type); higher = more cleavage; co-transcriptional
row,Variant,self-cleavage
1,GUCCUCUUUCACGUGCGCGUGAAAAAGAGAAGUGAAACAGAGAAACACACGUUGUGGUAUAUUACCUGGUA [G25A C37A],0.199
2,GUCCUCUUUCACGUGCGCGUGAAAAAGAGAAGUGAAGCAGAGAAACACACGUUGUGGUAUAUUACCUGGUA [G25A C37G],0.134
3,GUCCUCUUUCACGUGCGCGUGAAACAGAGAAGUGAACCAGAGAAACACACGUGGUGGUAUAUUACCUGGUA [G25C U53G],0.39
4,GUCCUCUUUCACGUGCGCGUGAAAAAGAGAAGUGAACCAGAGAAACAUACGUUGUGGUAUAUUACCUGGUA [G25A C48U],0.135
5,GUCCUCUUUCACGUGCGCGUGAAAAAGAGAAGUGAACCAGAGAAACAAACGUUGUGGUAUAUUACCUGGUA [G25A C48A],0.176
6,GUCCUCUUUCACGUGCGCGUGAAAAAGAGAAGUGAACCAGAGAAACACACAUUGUGGUAUAUUACCUGGUA [G25A G51A],0.586
7,GUCCUCUUUCACGUGCGCGUGAAAAAGAGAAGUGAACCAGAGAAACACACGAUGUGGUAUAUUACCUGGUA [G25A U52A],0.643
8,GUCCUCUUUCACGUGCGCGUGAAAAAGAGAAGUGAACCAGAGAAACACACGGUGUGGUAUAUUACCUGGUA [G25A U52G],0.61
9,GUCCUCUUUCACGUGCGCGUGAAACAGAGAAGUGAACCAGAGAAACACACGUUGUGGUAUAUUACUUGGUA [G25C C66U],0.182
10,GUCCUCUUUCACGUGCGCGUGAAACAGAGAAGUGAACCAGAGAAACACACGUUGUGGUAUAUUACAUGGUA [G25C C66A],0.133
11,GUCCUCUUUCACGUGCGCGUGAAAAAGAGAAGUGAACCAGAGAAACACACGUUGUGGUAUAUUACCUGGUC [G25A A71C],1.1
12,GUCCUCUUUCACGUGCGCGUGAAACAGAAAAGUGAACCAGAGAAACACACGUUGUGGUAUAUUACCUGGUA [G25C G29A],0.13
13,GUCCUCUUUCACGUGCGCGUGAAACAGAGAAGUGAACCAGAAAAACACACGUUGUGGUAUAUUACCUGGUA [G25C G42A],0.174
14,GUCCUCUUUCACGUGCGCGUGAAAAAGAGAAGUGAACCAGAGAAACACACGUUGUGCUAUAUUACCUGGUA [G25A G57C],0.0684
15,GUCCUCUUUCACGUGCGCGUGAAACAGAGAAGUGAACCAGAGCAACACACGUUGUGGUAUAUUACCUGGUA [G25C A43C],0.0652
16,GUCCUCUUUCACGUGCGCGUGAAACAGAGAAGUGAACCAGAGUAACACACGUUGUGGUAUAUUACCUGGUA [G25C A43U],0.243
17,GUCCUCUUUCACGUGCGCGUGAAAAAGAGAAGUGAACUAGAGAAACACACGUUGUGGUAUAUUACCUGGUA [G25A C38U],0.283
18,GUCCUCUUUCACGUGCGCGUGAAAAAGAGAAGGGAACCAGAGAAACACACGUUGUGGUAUAUUACCUGGUA [G25A U33G],0.136
19,GUCCUCUUUCACGUGCGCGUGAAAAAGAGAAGUGAACCAGAGAAACACAAGUUGUGGUAUAUUACCUGGUA [G25A C50A],0.107

row,Variant,self-cleavage
1,GUCCUCUUUCACGUGCGCGUGAAAAAGAGAAGUGAACCAGAGAAACACACGUUGUGGUAGAUUACCUGGUA [G25A U60G],0.291
2,GUCCUCUUUCACGUGCGCGUGAAACAGAGAAGUGAACCAGAGAAACACACGUUGUGGUAUCUUACCUGGUA [G25C A61C],0.0596
3,GUCCUCUUUCACGUGCGCGUGAAAAAGAGAAGUGAACCAGAGAAACACACGUUGUGGUAUUUUACCUGGUA [G25A A61U],0.0154
4,GUCCUCUUUCACGUGCGCGUGAAAAAGAGAAGUGAACCAGAGAAACACACGUUGUGGUGUAUUACCUGGUA [G25A A59G],0.138
5,GUCCUCUUUCACGUGCGCGUGAAAAAGAAAAGUGAACCAGAGAAACACACGUUGUGGUAUAUUACCUGGUA [G25A G29A],0.204
6,GUCCUCUUUCACGUGCGCGUGAAACAGAGAAGUCAACCAGAGAAACACACGUUGUGGUAUAUUACCUGGUA [G25C G34C],0.967
7,GUCCUCUUUCACGUGCGCGUGAAACAGAGAAGUGAACCAGAGAAACACACGUUGUGGUAUAUUACCUGGUG [G25C A71G],0.687
8,GUCCUCUUUCACGUGCGCGUGAAAAAGAGAAGUGAACCAGAGAAACACACGUUGUGGAAUAUUACCUGGUA [G25A U58A],0.376
9,GUCCUCUUUCACGUGCGCGUGAAAAAGAGAAGUGAACCAGAGAAACACACGUUGUGGGAUAUUACCUGGUA [G25A U58G],0.496
10,GUCCUCUUUCACGUGCGCGUGAAACAGAGAAGUGAACCAGAGAAACACACGUUAUGGUAUAUUACCUGGUA [G25C G54A],0.239
11,GUCCUCUUUCACGUGCGCGUGAAACAGAGAAGUGAACCAGAGAAACACACGUUUUGGUAUAUUACCUGGUA [G25C G54U],0.245
12,GUCCUCUUUCACGUGCGCGUGAAAAAUAGAAGUGAACCAGAGAAACACACGUUGUGGUAUAUUACCUGGUA [G25A G27U],0.177
13,GUCCUCUUUCACGUGCGCGUGAAAAAGAGAAGUGAACCAGAGAAACACACGUUGUGGUAUAUUACAUGGUA [G25A C66A],0.15
14,GUCCUCUUUCACGUGCGCGUGAAACAGAGAAGUGAACCAUAGAAACACACGUUGUGGUAUAUUACCUGGUA [G25C G40U],0.12
15,GUCCUCUUUCACGUGCGCGUGAAACAGAGAAGUGAACCACAGAAACACACGUUGUGGUAUAUUACCUGGUA [G25C G40C],0.102
16,GUCCUCUUUCACGUGCGCGUGAAACAGAGAAGUGAACCAGAGAAACACAGGUUGUGGUAUAUUACCUGGUA [G25C C50G],0.178
17,GUCCUCUUUCACGUGCGCGUGAAACAGAGAAGUGAACCAGAGAAACACACGUUGUGGUAUAUUACCUGCUA [G25C G69C],0.187
18,GUCCUCUUUCACGUGCGCGUGAAACAGAGAAGUGAACCAGAGAAACACACGUUGUGGUAUAUUACCUGUUA [G25C G69U],0.199
19,GUCCUCUUUCACGUGCGCGUGAAAAAGAGAAGUGAACCAGAGAAACACACGUGGUGGUAUAUUACCUGGUA [G25A U53G],0.524
